From US8822407B2, “Preparation of conjugates comprising adenine derivatives and allergenic proteins and their use for specific immunotherapy of allengenic diseases” (Universita' Degli Studi di Firenze, priority 2010, dated 2014)

What was measured:
human TLR7 = biological target: T1, human TLR7 (Homo sapiens, UniProt Q9NYK1); experiment: TLR7 activation, NF-kB luciferase reporter in transfected HEK293 cells; type: cell-based; details: human TLR7-encoding plasmid
T1 construct: expressed in transfected cells; host or cells: HEK293 (transient Nucleofection, Amaxa)
T1 sequence (Q9NYK1 27-1049): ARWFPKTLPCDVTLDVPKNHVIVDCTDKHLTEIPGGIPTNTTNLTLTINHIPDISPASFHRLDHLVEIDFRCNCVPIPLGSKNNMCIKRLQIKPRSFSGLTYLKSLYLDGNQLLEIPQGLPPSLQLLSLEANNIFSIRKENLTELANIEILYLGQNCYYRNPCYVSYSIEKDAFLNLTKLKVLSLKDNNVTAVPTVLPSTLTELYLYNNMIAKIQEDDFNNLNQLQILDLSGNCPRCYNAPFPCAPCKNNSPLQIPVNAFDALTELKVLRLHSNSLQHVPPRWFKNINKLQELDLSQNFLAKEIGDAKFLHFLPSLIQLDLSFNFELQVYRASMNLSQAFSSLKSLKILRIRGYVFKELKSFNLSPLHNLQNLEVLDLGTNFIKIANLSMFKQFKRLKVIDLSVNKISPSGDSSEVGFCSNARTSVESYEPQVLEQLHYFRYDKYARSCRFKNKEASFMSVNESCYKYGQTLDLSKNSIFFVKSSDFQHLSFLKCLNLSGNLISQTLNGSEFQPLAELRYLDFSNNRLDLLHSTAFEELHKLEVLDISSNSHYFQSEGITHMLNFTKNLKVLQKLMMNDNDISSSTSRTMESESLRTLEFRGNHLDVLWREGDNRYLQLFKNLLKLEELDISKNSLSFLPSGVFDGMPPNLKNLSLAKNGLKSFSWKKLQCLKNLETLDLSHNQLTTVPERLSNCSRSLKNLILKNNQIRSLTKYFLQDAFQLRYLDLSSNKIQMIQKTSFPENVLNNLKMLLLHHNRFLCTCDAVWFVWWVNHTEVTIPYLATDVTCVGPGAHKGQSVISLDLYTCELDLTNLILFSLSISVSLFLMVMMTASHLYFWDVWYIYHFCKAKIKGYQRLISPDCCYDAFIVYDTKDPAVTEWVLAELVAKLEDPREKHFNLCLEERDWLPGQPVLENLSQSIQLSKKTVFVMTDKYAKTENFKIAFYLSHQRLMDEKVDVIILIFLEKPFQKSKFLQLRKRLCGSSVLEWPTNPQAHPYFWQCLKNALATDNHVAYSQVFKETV
Method: HEK293 cells are detached by trypsin from the plastic surface of the culture bottle, extensively washed with calcium and magnesium-free PBS, counted and adjusted at the concentration 1×10^6 cells/tube in polypropylene V-bottomed tubes. After the final wash, the cells are pelleted and 100 μl transfection buffer (Amaxa) is added together with […], TLR7, TLR8 or TLR9-encoding and ELAM-1 promoter NF-kB luciferase reporter plasmids. The mixture thus obtained is transferred in special cuvettes and transient transfection is obtained in a special apparatus which is able to directly introduce genetic material into the nucleus (Nucleofection®, Amaxa GmbH). The cells are then recovered and cultured at 1×10^5/ml in 48-flat bottomed plates in E-MEM medium plus 5% foetal calf serum for 18 hrs. […] Finally the luciferase activity is measured in the cellular lysates by a commercial kit (Promega).

purified CD14+ cells = experiment: Cytokine production by purified CD14+ cells (ELISA of supernatants, 36 hrs); type: cell-based, human; details: for IL-6 production / IL-10 production / IL-12p40 production / TNF-alfa production: Table E
Method: Circulating mononuclear cells (MNC) are isolated by density gradient (Ficoll-Hypaque) using buffy coats from 14 normal donors (Servizio Immunotrasfusionale e terapie cellulari, Azienda Ospedaliera Universitaria A. Meyer, Firenze). 200×10^6 MNC are separated by the use of a commercial kit (CD14 isolation kit, Miltenyi) by the addition of 400 μl anti-CD14 monoclonal antibody bound to iron beads followed by isolation on magnetic columns (LS column). 50×10^6 monocytes are recovered by positive selection and are extensively washed with calcium and magnesium-free sterile PBS and then seeded in complete medium plus 10% foetal calf serum in 24 flat bottomed plates at the concentration of 1×10^6/ml. […] The plates are incubated for 36 hrs at 37° C. in 5% CO2 humidified atmosphere and the supernatants are collected after centrifugation at 1200 rpm, aliquoted and then stored at −20° C. up to the assay. […]
(§1) For the determination of cytokines and chemokines of the innate immunity, commercial ELISAs have been used: IL-12p40 (Cytoscreen, Biosource Int, Camarillo, Calif.), IFN-alfa (Cytoscreen), TNF-alfa (Cytoscreen), IL-10 (Pharmingen), IL-6 and CXCL10 (R&D System). 100 μl/well of single supernatants are incubated in flat bottomed plates as specified by the productors and the amounts of the single cytokines are expressed as pg/ml on the basis of a reference curve by using recombinant cytokines.

purified BDCA4+ cells = experiment: Cytokine production by purified BDCA4+ cells (plasmacytoid dendritic cells), ELISA; type: cell-based, human; details: for IFN-alfa production / IL-6 production / IL-10 production / TNF-alfa production: Table F
Method: The preparation of purified BDCA4+ cells has been obtained in a similar way starting from MNC of buffy coats of the same 14 healthy donors. […] By positive selection 5×10^6 plasmacytoid dendritic cells (PDCs) are recovered, extensively washed with calcium and magnesium-free sterile PBS and seeded in complete medium plus 10% foetal calf serum in 24-flat bottomed plates at the concentration 1×10^6/ml. […] The plates are incubated for 36 hrs at 37° C. in 5% CO2 humidified atmosphere and the supernatants are collected after centrifugation at 1200 rpm, aliquoted and then stored at −20° C. up to the assay. […]
as §1

B1: nDer p2: purified natural allergen Der p2, major allergen from the house dust mite Dermatophagoides pteronyssinus (protein, UniProt P49278 18-146, looked up)
Mite group 2 allergen Der p 2: DQVDVKDCANHEIKKVLVPGCHGSEPCIIHRGKPFQLEAVFEANQNTKTAKIEIKASIDGLEVDVPGIDPNACHYMKCPLVKGQQYDIKYTWNVPKIAPKSENVVVTVKVMGDDGVLACAIATHAKIRD
modifications: natural purified
notes: purified natural allergen Der p2, major allergen from the house dust mite Dermatophagoides pteronyssinus
Human TLR7
  TLR7 activation (NF-κB luciferase) in transfected HEK293 cells: lack any activity
Purified CD14+ cells; Table B, dose 10 μg/ml
  IL-6 production (mean ± SE): 0 ± 0 ng/mL
  IL-10 production (mean ± SE): 0.4 ± 0.4 ng/mL
  IL-12p40 production (mean ± SE): 0 ± 0 ng/mL
  TNF-alfa production (mean ± SE): 0.05 ± 0.06 ng/mL
Purified CD14+ cells; Donor #1, dose 10 μg/ml
  IL-6 production: 0 pg/mL
  IL-10 production: 0 pg/mL
  IL-12p40 production: 0 pg/mL
  TNF-alfa production: 218 pg/mL
Purified CD14+ cells; Donor #2, dose 10 μg/ml
  IL-6 production: 0 pg/mL
  IL-10 production: 0 pg/mL
  IL-12p40 production: 0 pg/mL
  TNF-alfa production: 0 pg/mL
Purified CD14+ cells; text to Tables A and B
  cytokine production from purified CD14+ cells (in words): essentially unable to induce the production of valuable cytokines
Purified BDCA4+ cells; Table D, dose 10 μg/ml
  IFN-alfa production (mean ± SE): 0.07 ± 0.06 ng/mL
  IL-6 production (mean ± SE): 0 ± 0 ng/mL
  IL-10 production (mean ± SE): 0 ± 0 ng/mL
  TNF-alfa production (mean ± SE): 0.03 ± 0.02 ng/mL
Purified BDCA4+ cells; Donor #1, dose 10 μg/ml
  IFN-alfa production: 0 pg/mL
  IL-6 production: 0 pg/mL
  IL-10 production: 0 pg/mL
  TNF-alfa production: 0 pg/mL
Purified BDCA4+ cells; Donor #2, dose 10 μg/ml
  IFN-alfa production: 0 pg/mL
  IL-6 production: 0 pg/mL
  IL-10 production: 0 pg/mL
  TNF-alfa production: 0 pg/mL
